Laboratory results reported in patent publication EP4725967A1 (Nanjing Probio Biotech Co., Ltd., dated 2026).

Legend:
[1] = biological target: T1, human CCR8 (human, UniProt P51685 1-355); assay: flow cytometry on HEK293/hu-CCR8 cells, chimeric antibody (FIG. 1B)
T1 construct: whole, on cells; also called hu-CCR8; CC chemokine receptor 8

[2] = biological target: T1, human CCR8; assay: flow cytometry, hybridoma supernatant on HEK293/hu-CCR8 cells
[3] = biological target: T1, human CCR8; assay: flow cytometry on HEK293/hu-CCR8 cells, chimeric antibody (FIG. 1A)
[4] = biological target: T1, human CCR8; assay: flow cytometry on HEK293/hu-CCR8 cells (FIG. 5A)

T1 sequence (P51685 whole entry): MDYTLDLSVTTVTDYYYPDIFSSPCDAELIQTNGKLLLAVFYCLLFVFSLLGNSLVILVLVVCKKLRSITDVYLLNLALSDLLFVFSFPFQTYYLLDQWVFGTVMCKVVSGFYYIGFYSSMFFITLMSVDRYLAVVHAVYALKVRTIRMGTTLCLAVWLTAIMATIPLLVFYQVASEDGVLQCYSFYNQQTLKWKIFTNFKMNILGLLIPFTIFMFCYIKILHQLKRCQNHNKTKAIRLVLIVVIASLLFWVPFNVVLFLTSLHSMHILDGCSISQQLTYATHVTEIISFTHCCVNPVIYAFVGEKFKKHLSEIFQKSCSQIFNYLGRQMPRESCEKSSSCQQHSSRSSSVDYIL

B1: chimeric antibody 224E9A3 (antibody, human IgG1, kappa, V domains shown)
VH: EVQLVESGGGLVQPKGSLKLSCAASGFTFNTYAMYWVCQAPGKGLEWVARIRSKSNNYATYYADSVKDRFTISRDDSQSMLYLQMNNLKTEDTAMYYCVRGGRGNYLYAMDYWGQGTSVTVSS
VL: DIVMTQAAPSVPVTPGESVSISCRSSKSLLHSNGNTYLYWFLQRPGQSPQLLIYRMSNLASGVPDRFSGSGSGSAFTLRISRVEAEDVGVYYCMQHLEYPFTFGSGTKLEIKR
notes: Murine variable regions on human IgG1/kappa
B1: binds [1].

B2: antibody produced by monoclonal clone 224E9A3 (murine, hybridoma) (antibody, V domains shown)
VH: EVQLVESGGGLVQPKGSLKLSCAASGFTFNTYAMYWVCQAPGKGLEWVARIRSKSNNYATYYADSVKDRFTISRDDSQSMLYLQMNNLKTEDTAMYYCVRGGRGNYLYAMDYWGQGTSVTVSS
VL: DIVMTQAAPSVPVTPGESVSISCRSSKSLLHSNGNTYLYWFLQRPGQSPQLLIYRMSNLASGVPDRFSGSGSGSAFTLRISRVEAEDVGVYYCMQHLEYPFTFGSGTKLEIK
notes: Mouse antibody in hybridoma supernatant
B2: binds [2].

B3: chimeric antibody 117G9F9 (antibody, human IgG1, kappa, V domains shown)
VH: EVQLVESGGGLVQPKGSLKLSCAASGFSFNTYAMNWVRQAPGKGLEWVARIRSKSNYYATYYADSVKDRFTISRDDSESMLYLQMNNLKTEDTAMYYCVRGGNSYGSSYFDYWGQGTTLTVSS
VL: DIVMTQAAPSVPVTPGESVSISCRSSKSLLHRNGNTYLYWFLQRPGQSPQLLIYRMSNLASGVPDRFSGSGSGTAFTLRISRLEAEDVGVYYCMQHLEYPFTFGAGTKLELKR
notes: as for B1
B3: binds [3].

B4: antibody produced by monoclonal clone 117G9F9 (murine, hybridoma) (antibody, V domains shown)
VH: EVQLVESGGGLVQPKGSLKLSCAASGFSFNTYAMNWVRQAPGKGLEWVARIRSKSNYYATYYADSVKDRFTISRDDSESMLYLQMNNLKTEDTAMYYCVRGGNSYGSSYFDYWGQGTTLTVSS
VL: DIVMTQAAPSVPVTPGESVSISCRSSKSLLHRNGNTYLYWFLQRPGQSPQLLIYRMSNLASGVPDRFSGSGSGTAFTLRISRLEAEDVGVYYCMQHLEYPFTFGAGTKLELK
notes: Mouse antibody in hybridoma supernatant; Taking 31/32 as murine rests only on the order of listing
B4: binds [2].

B5: humanized antibody 154G7C3-VH1.1-VL2 (antibody, human IgG1, kappa, V domains shown)
VH: QVQLVQSGAEVKKPGASVKVSCKVSGYTFTDFEMHWVRQAPGKGLEWIGAFDPETGGTAYNQKFKGRVTMTEDTSTDTAYMELSSLRSEDTAVYYCTGRLRRHFDSWGQGTLVTVSS
VL: DIVMTQSPLSLPVTPGEPASISCRSSQSLVHSYGNTYLHWYLQKPGQSPQLLIYKVSNRFSGVPDRFSGSGSGTDFTLKISRVEAEDVGVYYCSQSTHVPFTFGQGTKLEIKR
notes: Human IgG1/kappa
B5: binds [4].

B6: humanized antibody 117G9F9-VH2.1-VL1 (antibody, human IgG1, kappa, V domains shown)
VH: EVQLVESGGGLVKPGGSLRLSCAASGFSFNTYAMNWVRQAPGKGLEWVGRIRSKSNYYATYYADSVKDRFTISRDDSKNTLYLQMNSLKTEDTAVYYCVRGGNSYGSSYFDYWGQGTLVTVSS
VL: DIVMTQSPLSLPVTPGEPASISCRSSKSLLHRNGNTYLYWYLQKPGQSPQLLIYRMSNLASGVPDRFSGSGSGTDFTLKISRVEAEDVGVYYCMQHLEYPFTFGQGTKLEIKR
notes: Human IgG1/kappa
B6: binds [4].

B7: antibody produced by monoclonal clone 154G7C3 (murine, hybridoma) (antibody, V domains shown)
VH: QVQLQQSGAELVRPGASVTLSCKTSGYTFTDFEMHWVKQTPVHGLEWIGAFDPETGGTAYNQKFKGKAILTADKSSSTAYMELRSLTSEDSAVYYCTGRLRRHFDSWGQGTTLTVSS
VL: DVVMTQTPLSLPVSLGDQASISCRSSQSLVHSYGNTYLHWYLQKPGQSPKLLIYKVSNRFSGVPDRFSGSGSGTDFTLKISRVEAEDLGVYFCSQSTHVPFTFGSGTKLEIK
notes: Mouse antibody in hybridoma supernatant; Taking 27/28 as murine rests only on the order of listing
B7: binds [2].

B8: chimeric antibody 154G7C3 (antibody, human IgG1, kappa, V domains shown)
VH: QVQLQQSGAELVRPGASVTLSCKTSGYTFTDFEMHWVKQTPVHGLEWIGAFDPETGGTAYNQKFKGKAILTADKSSSTAYMELRSLTSEDSAVYYCTGRLRRHFDSWGQGTTLTVSS
VL: DVVMTQTPLSLPVSLGDQASISCRSSQSLVHSYGNTYLHWYLQKPGQSPKLLIYKVSNRFSGVPDRFSGSGSGTDFTLKISRVEAEDLGVYFCSQSTHVPFTFGSGTKLEIKR
notes: as for B1
B8: binds [3].
